# Results published in US20200102373A1.
# Biological target: biotin-labeled HA peptide
# Experiment: SPR (OpenSPR), biotin-labeled HA peptide on a Streptavidin chip, purified FB-GFP in solution, one-to-one model, two independent experiments
substance,measurement,value
"purified recombinant HA frankenbody fused with mEGFP and a hexahistidine tag (purified FB-GFP, from E. coli) (scFv)",Kd,14.7 nM
